Laboratory results published in patent US20170298096A1 (CANIMGUIDE THERAPEUTICS, published 2017).
No end group written: not given here.

T1: His-tagged P3028 (human, not fully specified)
T1 construct: the tag is put first after 'PGE73=His-tag-P3028'; also called PGE73; not shown: His-tag
T1 peptide: {His‑tag}-VFDEFKPLVEEPQNLIK


Biological target: T1, His-tagged P3028
Assay: chip ELISA

Row | Binder | ELISA signal
1 | KKQDTFFVKLSLFTER [P28R L3Q] | 473
2 | KKLDTFFVKLSSFTER [P28R L12S] | 478
3 | KKLDTFFVKLSRFTER [P28R L12R] | 483
4 | KKLDTFFVKLSIFTER [P28R L12I] | 456
5 | KKLDTFFVKLSNFTER [P28R L12N] | 462
6 | KKLDTFFVKLSLFTEV [P28R R16V] | 254
7 | KKLDTFFVKLSMFTER [P28R L12M] | 499
8 | KKLDTFFVKWSLFTER [P28R L10W] | 316
9 | KKLDTFFVKLSTFTER [P28R L12T] | 437
10 | KKLDTFFVKDSLFTER [P28R L10D] | 102
11 | KKLDTFFVKISLFTER [P28R L10I] | 415
12 | KKLDTFFVKFSLFTER [P28R L10F] | 403
13 | KKRDTFFVKLSLFTER [P28R L3R] | 370
14 | KKLDTFFVKLSLFTEY [P28R R16Y] | 311
15 | KKLDTFFVKLSHFTER [P28R L12H] | 460
16 | KKLDTFFVKLSLFTEQ [P28R R16Q] | 133
17 | KKSDTFFVKLSLFTER [P28R L3S] | 393
18 | KKLDTFFVKLALFTER [P28R S11A] | 318
19 | KKLDTFFVKLSLFTEW [P28R R16W] | 202
20 | KKLDTFFVKLSLFTEL [P28R R16L] | 217
21 | KKLDTFFVKLTLFTER [P28R S11T] | 520
22 | KKLDTFFVKLSYFTER [P28R L12Y] | 320
23 | KKLDTFFVKLSVFTER [P28R L12V] | 545
24 | KKLDTFFVKLFLFTER [P28R S11F] | 250

Row | Binder | ELISA signal
25 | KKLDTFFVKLSLFTEH [P28R R16H] | 239
26 | KKLDTFFVKLRLFTER [P28R S11R] | 333
27 | KKLDTFFVKLSLFTEI [P28R R16I] | 176
28 | KKLDTFFVKLSWFTER [P28R L12W] | 409
29 | KKLDTFFVKLSFFTER [P28R L12F] | 389
30 | KKVDTFFVKLSLFTER [P28R L3V] | 377
31 | KKLDTFFVKLSKFTER [P28R L12K] | 355
32 | KKLDTFFVKLSLFTEE [P28R R16E] | 107
33 | KKLDTFFVKQSLFTER [P28R L10Q] | 470
34 | KKLDTFFVKLSQFTER [P28R L12Q] | 651
35 | KKLDTFFVKLSDFTER [P28R L12D] | 89
36 | KKLDTFFVKLMLFTER [P28R S11M] | 744
37 | KKTDTFFVKLSLFTER [P28R L3T] | 451
38 | KKLDTFFVKASLFTER [P28R L10A] | 426
39 | KKLDTFFVKLLLFTER [P28R S11L] | 213
40 | KKLDTFFVKRSLFTER [P28R L10R] | 439
41 | KKLDTFFVKYSLFTER [P28R L10Y] | 382
42 | KKLDTFFVKESLFTER [P28R L10E] | 81
43 | KKLDTFFVKLELFTER [P28R S11E] | 234
44 | KKLDTFFVKLSEFTER [P28R L12E] | 82
45 | KKYDTFFVKLSLFTER [P28R L3Y] | 344
46 | KKLDTFFVKLSLFTET [P28R R16T] | 292
47 | KKLDTFFVKLSLFTEK [P28R R16K] | 291
48 | KKLDTFFVKLDLFTER [P28R S11D] | 322

Row | Binder | ELISA signal
49 | KKLDTFFVKLILFTER [P28R S11I] | 289
50 | KKLDTFFVKLSLFTEA [P28R R16A] | 226
51 | KKLDTFFVKHSLFTER [P28R L10H] | 293
52 | KKLDTFFVKLYLFTER [P28R S11Y] | 402
53 | KKLDTFFVKTSLFTER [P28R L10T] | 399
54 | KKLDTFFVKLSLFTES [P28R R16S] | 184
55 | KKLDTFFVKLVLFTER [P28R S11V] | 392
56 | KKLDTFFVKVSLFTER [P28R L10V] | 658
57 | KKLDTFFVKLNLFTER [P28R S11N] | 451
58 | KKLDTFFVKLSLFTEN [P28R R16N] | 311
59 | KKLDTFFVKLSLFTED [P28R R16D] | 133
60 | KKLDTFFVKLWLFTER [P28R S11W] | 324
61 | KKLDTFFVKLSLFTEM [P28R R16M] | 238
62 | KKLDTFFVKNSLFTER [P28R L10N] | 365
63 | KKWDTFFVKLSLFTER [P28R L3W] | 341
64 | KKLDTFFVKKSLFTER [P28R L10K] | 285
65 | KKLDTFFVKLQLFTER [P28R S11Q] | 768
66 | KKLDTFFVKMSLFTER [P28R L10M] | 460
67 | KKLDTFFVKLHLFTER [P28R S11H] | 535
68 | KKLDTFFVKLSAFTER [P28R L12A] | 462
69 | KKLDTFFVKLSLFTEF [P28R R16F] | 297
70 | KKLDTFFVKLKLFTER [P28R S11K] | 323
71 | KKLDTFFVKSSLFTER [P28R L10S] | 351
